Data on three sequences can be found in the supplement of paper PMC6379048.

What all share (assay): Kd (EC50 corrected by depletion factor)
One data set has as its target TUBB4B (UniProt P68371). Summed up: (§1)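 HEK293-FT lysate (2.5 mg protein/well) was treated with free RNA oligos (0 nM to 30 μM) for 1 h at 4°C, then with the same oligos on NHS-Sepharose beads for 30 min at 4°C. Bound proteins were quantified by label-free LC-MS/MS relative to the control. EC50 came from a four-parameter log-logistic fit, and Kd is EC50 times a protein-dependent depletion factor.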

In the next data set the target is RPS14 (UniProt P62263). Summed up:
as §1

A further data set concerns the target T1, YTHDC2 (UniProt Q9H6S0).
T1 sequence: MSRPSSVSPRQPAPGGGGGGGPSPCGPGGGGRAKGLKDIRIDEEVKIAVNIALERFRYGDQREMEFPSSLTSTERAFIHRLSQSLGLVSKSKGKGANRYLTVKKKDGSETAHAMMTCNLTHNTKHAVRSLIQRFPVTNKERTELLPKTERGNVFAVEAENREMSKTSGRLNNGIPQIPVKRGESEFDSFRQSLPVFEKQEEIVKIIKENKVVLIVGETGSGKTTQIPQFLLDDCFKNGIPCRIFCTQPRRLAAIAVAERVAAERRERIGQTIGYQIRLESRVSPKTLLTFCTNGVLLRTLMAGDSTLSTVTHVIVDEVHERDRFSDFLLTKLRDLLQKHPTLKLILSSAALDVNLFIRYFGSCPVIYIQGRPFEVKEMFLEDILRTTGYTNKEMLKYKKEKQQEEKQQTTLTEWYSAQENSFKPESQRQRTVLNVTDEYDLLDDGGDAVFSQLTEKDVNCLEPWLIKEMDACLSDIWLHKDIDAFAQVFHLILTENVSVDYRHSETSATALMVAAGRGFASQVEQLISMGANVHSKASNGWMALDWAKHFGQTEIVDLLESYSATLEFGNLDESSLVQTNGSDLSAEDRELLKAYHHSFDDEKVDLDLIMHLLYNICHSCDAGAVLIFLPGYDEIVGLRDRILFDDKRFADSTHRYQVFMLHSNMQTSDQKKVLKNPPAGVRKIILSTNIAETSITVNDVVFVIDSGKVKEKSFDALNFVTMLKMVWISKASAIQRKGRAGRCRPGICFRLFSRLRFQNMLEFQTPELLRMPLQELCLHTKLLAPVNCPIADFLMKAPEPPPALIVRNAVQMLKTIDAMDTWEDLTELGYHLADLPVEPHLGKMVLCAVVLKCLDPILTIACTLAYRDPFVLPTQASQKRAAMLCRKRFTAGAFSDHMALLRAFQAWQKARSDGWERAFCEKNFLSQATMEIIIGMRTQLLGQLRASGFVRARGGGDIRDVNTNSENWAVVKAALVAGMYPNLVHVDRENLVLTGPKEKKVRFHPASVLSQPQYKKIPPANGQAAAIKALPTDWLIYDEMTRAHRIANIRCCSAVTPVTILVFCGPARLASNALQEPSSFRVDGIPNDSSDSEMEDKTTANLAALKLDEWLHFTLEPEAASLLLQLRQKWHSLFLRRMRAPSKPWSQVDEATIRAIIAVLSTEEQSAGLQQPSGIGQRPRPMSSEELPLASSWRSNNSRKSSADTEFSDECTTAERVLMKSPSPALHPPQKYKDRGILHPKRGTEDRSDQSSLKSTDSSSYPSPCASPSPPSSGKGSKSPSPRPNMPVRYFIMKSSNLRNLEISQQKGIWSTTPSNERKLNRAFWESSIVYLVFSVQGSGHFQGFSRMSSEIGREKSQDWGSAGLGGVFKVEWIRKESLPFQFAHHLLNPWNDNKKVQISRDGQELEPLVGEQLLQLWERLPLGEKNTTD
Summed up: as §1

The next data set concerns the target MRPS23 (UniProt Q9Y3D9). Summed up: as §1
Another data set addresses T2, HNRNPM (UniProt P52272).
T2 sequence: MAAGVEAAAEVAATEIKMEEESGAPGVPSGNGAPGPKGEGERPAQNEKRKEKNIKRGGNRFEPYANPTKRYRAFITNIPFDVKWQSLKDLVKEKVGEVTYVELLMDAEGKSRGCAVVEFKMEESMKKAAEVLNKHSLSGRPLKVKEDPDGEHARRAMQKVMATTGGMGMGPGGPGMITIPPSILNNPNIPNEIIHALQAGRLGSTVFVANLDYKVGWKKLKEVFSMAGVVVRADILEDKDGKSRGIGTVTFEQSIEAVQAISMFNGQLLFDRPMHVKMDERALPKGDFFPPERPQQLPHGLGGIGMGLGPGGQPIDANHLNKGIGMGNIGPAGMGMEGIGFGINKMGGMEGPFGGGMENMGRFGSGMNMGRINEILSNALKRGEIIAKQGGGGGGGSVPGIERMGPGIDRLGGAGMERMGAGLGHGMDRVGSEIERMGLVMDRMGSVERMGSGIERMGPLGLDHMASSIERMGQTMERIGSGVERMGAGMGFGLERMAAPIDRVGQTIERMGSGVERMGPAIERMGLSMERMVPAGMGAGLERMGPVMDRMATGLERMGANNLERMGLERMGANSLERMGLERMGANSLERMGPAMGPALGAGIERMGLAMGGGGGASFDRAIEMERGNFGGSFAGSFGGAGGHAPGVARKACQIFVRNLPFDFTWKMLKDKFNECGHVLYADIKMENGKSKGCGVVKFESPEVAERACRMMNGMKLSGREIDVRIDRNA
Summed up: as §1

Chain of TUBB4B (P68371 whole entry): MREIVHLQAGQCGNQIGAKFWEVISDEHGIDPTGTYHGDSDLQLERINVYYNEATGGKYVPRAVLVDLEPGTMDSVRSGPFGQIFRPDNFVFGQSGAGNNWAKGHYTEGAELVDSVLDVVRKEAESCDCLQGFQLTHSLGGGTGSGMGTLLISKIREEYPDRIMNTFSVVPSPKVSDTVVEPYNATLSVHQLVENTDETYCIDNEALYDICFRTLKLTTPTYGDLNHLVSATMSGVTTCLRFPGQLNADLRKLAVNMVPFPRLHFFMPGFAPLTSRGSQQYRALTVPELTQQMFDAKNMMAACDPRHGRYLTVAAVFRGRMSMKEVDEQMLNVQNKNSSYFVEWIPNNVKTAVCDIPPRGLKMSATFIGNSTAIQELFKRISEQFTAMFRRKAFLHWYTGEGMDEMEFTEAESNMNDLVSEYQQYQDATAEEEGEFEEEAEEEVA

What is called Kd is the concentration at which binding is half-saturated. For AAUAAA, in the data set with TUBB4B, the Kd amounted to 2.43 µM.

Take CUGUCCU: the values for the Kd with RPS14 and with YTHDC2 were 0.126 µM and 0.986 µM, respectively.

For the sequence UAUUUAU, the results for the dissociation constant (Kd) in the data set with MRPS23 and with HNRNPM were 0.0156 µM and 4.41 µM, respectively.
